Here are results for nine variants from paper PMC10883267 (2023).

To fix the notation:
B1: mouse eIF4E1B (63-244) [mouse] / eIF4E-binding motif of human eIF4EBP1 (50-83) [human] (parent complex)
chain 1: KLHPLQYRWVLWFFKNDRSRAWQDNLQLVTKFNTVEDFWAVYSHIKLASKLSSGCDYALFKEGILPMWEDNRNKQGGRWLLSIDKQLRHFELDRLWLETLLCLVGNCFEEYSREVCGAVVNIRTKRDKIALWTSEAEDKAGVMQIGQIYKERLGISTKTIIGYQAHADTAAKSNNLANKFVV
chain 2: TRIIYDRKFLMECRNSPVTKTPPRDLPTIPGVTS
B2: mouse eIF4E1B (63-244) [mouse] / eIF4E-binding motif of human eIF4G (608-647) [human] (parent complex)
chain 1: B1 chain 1
chain 2: EKKRYDREFLLGFQFIFASMQKPEGLPHISDVVLDKANKT
B3: mouse eIF4E1B (63-244) [mouse] / eIF4E-binding motif of human eIF4ENIF1 (27-63) [human] (parent complex)
chain 1: B1 chain 1
chain 2: PHRYTKEELLDIKELPHSKQRPSCLSEKYDSDGVWDP

The variants in the first experiment derive from B1. The experiment is described as follows: pulldown with E. coli lysates, quantified; n = 3 independent experiments; parent: 0.9; read off a plot.
With chain 1 KLHPLQYRWVLWFFKNDRSRAWQDNLQLVTKFNTVEDFWAVYSHIELASKLSSGCDYALFKEGILPMWEDNRNKQGGRWLLSIDKQLRHFELDRLWLETLLCLVGNCFEEYSREVCGAVVNIRTKRDKIALWTSEAEDKAGVMQIGQIYKERLGISTKTIIGYQAHADTAAKSNNLANKFVV, the screen value was ~0.85 rel. to Mm eIF4E.

Consider chain 1 KLHPLQYRWVLWFFKNDRSRAWQDNLQLVTKFNTVEDFWAVYSHIKLASNLMSGCDYALFKEGILPMWEDERNKQGGRWLLSIDKQLRRFELDRLWLETLLCLVGNCFEEYSREVCGAVVNIRTKRDKIALWTSEAEDKAGVMQIGQIYKERLGISTKTIIGYQAHADTAAKSNNLANKFVV, for which the screen value is ~0.7 rel. to Mm eIF4E.

Take chain 1 KLHPLQYRWVLWFFKNDRSRAWQDNLQLVTKFNTVEDFWAVYSHIKLASNLSSGCDYALFKEGILPMWEDNRNKQGGRWLLSIDKQLRHFELDRLWLETLLCLVGNCFEEYSREVCGAVVNIRTKRDKIALWTSEAEDKAGVMQIGQIYKERLGISTKTIIGYQAHADTAAKSNNLANKFVV: the screen value is ~0.68 rel. to Mm eIF4E.

Variants of B2 are the subject of a further experiment. The experiment is described as follows: pulldown with E. coli lysates, quantified; n = 3 independent experiments; parent: 0.3; read off a plot.
As to chain 1 KLHPLQYRWVLWFFKNDRSRAWQDNLQLVTKFNTVEDFWAVYSHIELASKLSSGCDYALFKEGILPMWEDNRNKQGGRWLLSIDKQLRHFELDRLWLETLLCLVGNCFEEYSREVCGAVVNIRTKRDKIALWTSEAEDKAGVMQIGQIYKERLGISTKTIIGYQAHADTAAKSNNLANKFVV, the screen value is ~0.13 rel. to Mm eIF4E.

In the case of chain 1 KLHPLQYRWVLWFFKNDRSRAWQDNLQLVTKFNTVEDFWAVYSHIKLASNLMSGCDYALFKEGILPMWEDERNKQGGRWLLSIDKQLRRFELDRLWLETLLCLVGNCFEEYSREVCGAVVNIRTKRDKIALWTSEAEDKAGVMQIGQIYKERLGISTKTIIGYQAHADTAAKSNNLANKFVV, the screen value was ~0.22 rel. to Mm eIF4E.

Consider chain 1 KLHPLQYRWVLWFFKNDRSRAWQDNLQLVTKFNTVEDFWAVYSHIKLASNLSSGCDYALFKEGILPMWEDNRNKQGGRWLLSIDKQLRHFELDRLWLETLLCLVGNCFEEYSREVCGAVVNIRTKRDKIALWTSEAEDKAGVMQIGQIYKERLGISTKTIIGYQAHADTAAKSNNLANKFVV, for which the screen value is ~0.22 rel. to Mm eIF4E.

The next experiment covers variants of B3. In words: pulldown with E. coli lysates, quantified; n = 3 independent experiments; parent: 2.5; read off a plot.
In the case of chain 1 KLHPLQYRWVLWFFKNDRSRAWQDNLQLVTKFNTVEDFWAVYSHIKLASNLMSGCDYALFKEGILPMWEDERNKQGGRWLLSIDKQLRRFELDRLWLETLLCLVGNCFEEYSREVCGAVVNIRTKRDKIALWTSEAEDKAGVMQIGQIYKERLGISTKTIIGYQAHADTAAKSNNLANKFVV, the screen value was ~1.4 rel. to Mm eIF4E.

As to chain 1 KLHPLQYRWVLWFFKNDRSRAWQDNLQLVTKFNTVEDFWAVYSHIELASKLSSGCDYALFKEGILPMWEDNRNKQGGRWLLSIDKQLRHFELDRLWLETLLCLVGNCFEEYSREVCGAVVNIRTKRDKIALWTSEAEDKAGVMQIGQIYKERLGISTKTIIGYQAHADTAAKSNNLANKFVV, the screen value is ~1.6 rel. to Mm eIF4E.

For the variant chain 1 KLHPLQYRWVLWFFKNDRSRAWQDNLQLVTKFNTVEDFWAVYSHIKLASNLSSGCDYALFKEGILPMWEDNRNKQGGRWLLSIDKQLRHFELDRLWLETLLCLVGNCFEEYSREVCGAVVNIRTKRDKIALWTSEAEDKAGVMQIGQIYKERLGISTKTIIGYQAHADTAAKSNNLANKFVV, the screen value is ~1.6 rel. to Mm eIF4E.
